Test results published in the DeepSol protein solubility set.

Assay: soluble on expression in E. coli; label from the status in PepcDB or PDB records
With “MGSDKIHHHHHHMFTQDESYIKWKLFLEGDDQAYSWIYTHYIQVLYNYGLQITPDSEIVKDCIQDVFVKIYKAKKKLTVPQNPKVYLMIALKNNIYNTFNQERLQKNYAFSLYQTEEQLTVKNEFIDQEARHEEMNNIKRMMKILTPRQREVIYYRFIEELSYDDICQIMGLNYQSAYNLLQRSLQKIREAYGVTGIWMLILHQLTYLH” the “soluble on expression in E. coli” value was “not soluble”.
For “MGPNHPCGYLPGRDARFTYVSPAYPLSPQSYRGLLEEGFRRSGNWVYRPCCIGCSACLPVRLPVHDFRLTRSHRRVIKRNADIDIRVSVARFDERQFQLYVRYLAARHPLEHHHHHH”, the “soluble on expression in E. coli” value was “not soluble”.
With “MSLMTKENNKSAAETEEWKKEYALRDELLKQEKENKKFEKELYQKQNKVRQAENKLKKEKSEYYNVLEDTEKYRMYIGEVGVQGEGVEVTLEDASYIPEGENVNSYIVHESHIFQVVNELYISGAALVAVNGQRLTHDSYIKCNGPVVTVDGVQHPAPFTVSAIGDPDVLLPSLNIAGGLIDQLSMDHISVSAEKEKNVQMKPILKTKEEGHHHHHH” the “soluble on expression in E. coli” value was “soluble”.
For “MGQNQFRWSNEQLREHVEVIDGTRSPHIVLRNATYLNSYIREWMQANIWIYDDRIIYVGEKLPEQLHECEVIDCDGKYVVPSYIEPHAHPYQLYNPETLANHAMQFGTTTFINDNLTLFFTLKRELEHHHHHH”, the “soluble on expression in E. coli” value was “not soluble”.
In the case of “MGSDKIHHHHHHVKSDYYKEPIVINTDALIPPSPSDDMWKNRKRAYYMYDAPDVPTCSIVVTGYNRLHKTKYCVECILKYTRDVDYELILVDNGSDDGTLDFFQSVPYENKTIIRMTQNKGATLPFKYYINILKGKYIVNISNDIYVTQNWLSNLLKCYQSDPKIGFVEPVSSNVSNLQEVDLGFSDFDDMQKKAAAFNQSDPAKWEERLRLISVINVFLRDVLDNVGINDAAYFYDFIEDDLCARIRRMGYKLVLCRDTWICHDHDFRNLEDKDPVAFQASLEHGRAVYRKKYYGIDPWDDINNFELTLLAQLDTAKIPRAVKALTVDVRCGAPALEIRNRLKRRGITDVASYAFTTAAKYYLDLQTVCSEVQCDRIDFIQQHYANGTFDLVVLGEPVNTYPLPVRLLQNLYDFLKPGGLLLFKVRNTDDYRAFLRSIGMEVASDPDLPASTPLNEVLACLKLFGAVDCTVAGELESISVADQEFLMNKLKAANPNADQATLNRLCIKDYCIKVIRK”, the “soluble on expression in E. coli” value is reported as “not soluble”.
With “MGSDKIHHHHHHVDPVVLLTSVSALTQTQKPCRGRRNARDRIPTCSQETLEGKALALRVAVVGGGPAGSCAAETLVKAGIETYLIERKLDNAKPCGGAIPLCMVSEFDLPAEIIDRRVRNMKMISPSNREVNINLDNADEYIGMTRREVLDGFLRDRAAKLGTKLINGTLFRLELPKGDRDPYVLHYADHSNGSLEGIPSTLEVDVVIGADGANSRIAKAIDAGDYNYAIAFQERIRLPEDKMHYYENLAEMYVGGDVSPDFYAWVFPKYDHVAVGTGTMHVNQRLIKKLQAGIRARAANRLEGGKIIKVEAHPIPEHPRPRRVVGRAALVGDAAGYVTKSSGEGIYFAAKSGRMCAETIVETSNNGARIPTEADLKQYLRRWDKKYGTTYKVLDLLQTVFYRSDATREAFVEMCDDKDVQRLTFDSYLYKTVVPANPLVQLKITAKTLGSLLRGNALAPAEYKPIDAA” the “soluble on expression in E. coli” value was “not soluble”.
For “MSPEYAMEGIFSVKSDVFSFGVLVLEIVSGKRNRGFHNSGQDNNLLGYTWENWKEGKGLEIVDSIIVDSSSSMSLFQPHEVLRCIQIGLLCVQERAEDRPKMSSVIVPFCTR”, the “soluble on expression in E. coli” value was “not soluble”.
With “SLLDTLLINIGQLLTMDQEDGLLRREAMNTLPVIENGAVGIENGVITFVGTAEEAKGLQAKEVIDCGGKMVSPGLVDPHTHLVFGGSRENEIALKLQGVPYLEILEQGGGILSTVNATKQSSKEELVQKAKFHLDRMLSFGVTTVEAKSGYGLDDETEWKQLEATAQLQKEHPIDLVSTFLGAHAVPKEYKGRSKEFLQWMLDLLPEMKEKQLAEFVDIFCETGVFSVEESKEFLLKAKELGFDVKIHADEIDPLGGAEAAAEIGAASADHLVGASDKGIEMLANSNTVATLLPGTTFYLNKESFARGRKMIDEGVAVALATDFNPGSCPTENIQLIMSIAMLKLKMTPEEVWNAVTVNSSYAINRGDVAGKIRVGRKADLVLWDAYNYAYVPYHYGVSHVNTVWKNGNIAYTRGEQSWSTATI” the “soluble on expression in E. coli” value was “soluble”.
In the case of “MSLKPDNLPVTFGKNDVEIIARETLYRGFSSLDLYRFRHRLFNGQMSHEVRREIFERGHAAVLLPFDPVRDEVVLIEQIRIAAYDTSETPWLLEMVAGMIEEGESVEDVARREAIEEAGLIVKRTKPVLSFLASPGGTSERSSIMVGEVDATTASGIHGLADENEDIRVHVVSREQAYQWVEEGKIDNAASVIALQWLQLHHQALKNEWAEGGSHHHHHH”, the “soluble on expression in E. coli” value is reported as “soluble”.
In the case of “MGSDKIHHHHHHVTNKRPIAFDATPDTLRRSLVLSAAAASGLGLLPGAMRDARAQSFPPLGNFPAGTEGNSVFVGVSVPLTGAFSAEGKDQQLGFELAFEHLNSGKLAGKIPELKGKGVLGKTITFGVVDTEAKAESAIQGQTRFLRNNKAILMTGCYSSAVTVALGKLAQREKVLYMAGPAGSDDVTGKDCQRYSFRSQPSTTMASRALAPVLAERLGKGKKVAYLVPDYTFGHTQFESMARLTEPMGWKTVSKQVCPIGTADFSTYLLNIANSGADVFVNCTVGNDCSVSIKQAKNFGVMKNAALVVPTLQPFLAQQLGPEVTQDILGVMDFWWSLAESNELAKQFVDDFQAKHNYKPYWPAHIAYSQMLIWAVAVERAKTFYPPEVIKALEARVPIRTTLGDVMYRPEDHQLVRPVPVMRGKKPSEMKSKDDYYEVIKMIPGADAVTPLDQGTCKMGELT”, the “soluble on expression in E. coli” value is reported as “not soluble”.
For “MTKKELRAQIRQRNREMLAAENRERWSQSIIERIRRLDIFADAKRIGLYHALPDEPDLTGLLREYVQTKQLFIPRVEGDDIAFYAYTGEADLEAEGAYGIAEPTADAATAILPSSLDLLLVPGVAFDRKGSRMGRGKGYYDRFLPATQVRLIGVTFSYRLLEELPTDPWDRPMDGVITESETLFCLEHHHHHH”, the “soluble on expression in E. coli” value was “soluble”.
In the case of “AHHHHHHGSKLEIRDLSVGYDKPVLERITMTIEKGNVVNFHGPNGIGKTTLLKTISTYLKPLKGEIIYNGVPITKVKGKIFFLPEEIIVPRKISVEDYLKAVASLYGVKVNKNEIMDALESVEVLDLKKKLGELSQGTIRRVQLASTLLVNAEIYVLDDPVVAIDEDSKHKVLKSILEILKEKGIVIISSREELSYCDVNENLHKYSTKIDKKD”, the “soluble on expression in E. coli” value is reported as “soluble”.
With “MMFDRETQVVDCRCGGGLGKGGGLAQRGTLSEAGRADVVAVAMSPGQRHITKPVCEITYGMRKENIQVSVLVLYSGSGIPESGMRTGSFVLSPVEVAQIEMHKLAVIHLGNIKDHVIRKTREILSQVDIPAIIVSQIPVDFEDFAEAGIKTRLVMPRDENIRTKGIVMDMVSGVTRGDSCPRDKLNLIVKYVKTTLDQLKDHKGVALEHHHHHH” the “soluble on expression in E. coli” value was “soluble”.
For “MITLFQFPAAFNVPNASPYCLKLETWLRLAGLEYQVKVVSDPRKAPKGKLPYVRIEGEAIGDSEIVIRTLGERYGVTLDAGLDARGKGWARAITRLCDEHLYYLMLYFRWFDEDSWRVLKPVFFGSLPFGVRDAVAWAMRRKVRATLRAQGLGVHGRDELLAFARDDLDALDGLLGQVPYYGGEHPCSADAAAYGILANLIEATLDTPLSHVARGYPRLVAYCERMRERVWSELEHHHHHH”, the “soluble on expression in E. coli” value was “soluble”.
With “MSLTDLFAREPYAPLAERLRPHTLDDVVGQEHLIGEGKPLRVAVEGGKPHSMLLWGPPGVGKTTLARILAQSFNAQFLPVSAVFSGVKDIREAIDKAEIALQQGRATILFVDEVHRFNKAQQDAFLPHVESGLLTFIGATTENPSFEVNPALLSRAQVYVLQPLSSDDLKKLIAKVLALPEYQEFTIETDAQKLLVNTVDGDARRLLNLLEQLLRAADTRRLKNLTAEFLADSLGAQIRRFDKGGESFYNQISALHKSVRGSHPNAALYWFCRMLDGGTDPRYLARRIVRIAWEDIGLADPRALQIANDAAATFERLGSPEGELALAQAVLYLAAAAKSNAGYKAYNQMRHFVKENASDEVPVHLRNAPTKLMKELGYGREYRYAHDEPNAYAAGESYMPDGLDEPDFYQPVPRGLEIKIGEKLAWLKSLDEEVLKAEGHHHHHH” the “soluble on expression in E. coli” value was “soluble”.
In the case of “KKQITVLDLHPGAGKTRRILPQIIKEAINRRLRTAVLAPTRVVAAEMAEALRGLPIRYQTSAVAREHNGNEIVDVMCHATLTHRLMSPHRVPNYNLFVMDEAHFTDPASIAARGYISTRVELGEAAAIFMTATPPGTSDPFPESNAPISDLQTEIPDRAWNSGYEWITEYIGKTVWFVPSVKMGNEIALCLQRAGKKVIQLNRKSYETEYPKCKNDDWDFVVTTDISEMGANFKASRVIDSRKSVKPTIITEGEGRVILGEPSAVTAASAAQRRGRTGRNPSQAGDEYCYGGHTNEDDSNCAHWTEARIMLDNINMPNGLIAQFYQPEREKVYTMDGEYRLRGEERKNFLELLRTADLPVWLAYKVAAAGVSYHDRRWCFDGPRTNTILEDNNEVEVITKLGERKILRPRWIDARVYSDHQALKSFKDFASGKR”, the “soluble on expression in E. coli” value is reported as “soluble”.
In the case of “MGSDKIHHHHHHMANVNKTPGKTRRAEVAGGGFAGLTAAIALKQNGWDVRLHEKSSELRAFGAGIYLWHNGLRVLEGLGALDDVLQGSHTPPTYETWMHNKSVSKETFNGLPWRIMTRSHLHDALVNRARALGVDISVNSEAVAADPVGRLTLQTGEVLEADLIVGADGVGSKVRDSIGFKQDRWVSKDGLIRLIVPRMKKELGHGEWDNTIDMWNFWPRVQRILYSPCNENELYLGLMAPAADPRGSSVPIDLEVWVEMFPFLEPCLIEAAKLKTARYDKYETTKLDSWTRGKVALVGDAAHAMCPALAQGAGCAMVNAFSLSQDLEEGSSVEDALVAWETRIRPITDRCQALSGDYAANRSLSKGNMFTPAALEAARYDPLRRVYSWPQ”, the “soluble on expression in E. coli” value is reported as “not soluble”.
For “SCRRAFDLYFVLDKSGSVANNWIEIYNFVQQLAERFVSPEMRLSFIVFSSQATIILPLTGDRGKISKGLEDLKRVSPVGETYIHEGLKLANEQIQKAGGLKTSSIIIALTDGKLDGLVPSYAEKEAKISRSLGASVYCVGVLDFEQAQLERIADSKEQVFPVKGGFQALKGIINSILAQSC”, the “soluble on expression in E. coli” value was “soluble”.
With “MSLIPKIKDISVIECQPAGVRLTVVKITTDQDGLYGYGCATFTQRADLVKPAVERYLKPFLMGKTTDRIEDIWQSCYDSSYWKNGPVLNNAISGIDQALWDIKGRQAGLPVYQLAGGKCREAADCYAHADGADFPNVVEAAKRYMAQGFRHVRVQIGVPGMAGYGSSRGDTKVQALHSKPVFEPAYYVRRALKLFEVCRTELGEEIELLHDMHERVSPNQAVQFVKDAEKFKMFFMEDPLSPEDIAYFRQIRQQCATPIAMGELFNSPHEWTPLISERLIDYIRVHVSQAGGFTPARKIAILGETFGVKTAWHGPGDVSPIGHMANVTLDLVSYNFGIQEYSPFNGRTQEIFSGCPVMKDGYLYASEKPGWGIEVDEKLAAKAPFTDREGHHHHHH” the “soluble on expression in E. coli” value was “not soluble”.
For “GSRTVDLELELQIELLRETKRKYESVLQLGRALTAHLYSLLQTQHALGDAFADLSQKSPELQEEFGYNAETQKLLCKNGETLLGAVNFFVSSINTLVTKTMEDTLMTVKQYEAARLEYDAYRTDLEELSLGPRDAGTRGRLESAQATFQAHRDKYEKLRGDVAIKLKFLEENKIKVMHKQLLLFHNAVSAYFAGNQKQLEQTLQQFNIKLRPPGAEKPSWLEEQ”, the “soluble on expression in E. coli” value was “soluble”.
For “MGSDKIHHHHHHMDVIFSIFLETFGDPIGQQPVPPAAVDHYQGKLPNRLLEYWQDHGWCGYGGGLFWLVNPQEYQGVVASWLAGTHFEACDTYHLIARSAFGDLYLWGEKTGSVLTIAAYHSRYLDGAHSSGDEERDNKIHGLLMWLMTECVYFDDLFEPARERLGTLGSDEMYGFVPALMLGGPDSLERLEKLKAVEHLVLLSQLSELEPYELTGEEDE”, the “soluble on expression in E. coli” value was “not soluble”.
For “EFKDVFIEKQKGEILGVVIVESGWGSILPTVIIANMMHGGPAEKSGKLNIGDQIMSINGTSLVGLPLSTCQSIIKGLKNQSRVKLNIVRCPPVTTVLIRRPDLRYQLGFSVQNGIICSLMRGGIAERGGVRVGHRIIEINGQSVVATPHEKIVHILSNAVGEIHMKTMPAAMYRLLTAQEQPVYI”, the “soluble on expression in E. coli” value was “soluble”.
